The target in one experiment is EGFR (Homo sapiens, UniProt P00533). As to conditions: Mullenbach et al., Protein Eng 11:473-480, 1998; cited from earlier work.
Experiment [1] deals with T1, EGFR on NR6 fibroblast cells (Homo sapiens, UniProt P00533).
T1 construct: expressed in transfected cells; host or cells: NR6 fibroblast cells
Put plainly: Competition binding of soluble EGF to EGFR on NR6 fibroblast cells (flow cytometry, Alexa-488 labeled wt EGF). As to conditions: competition with Alexa-488 labeled wt EGF, 6 hr at 4° C., read-out: Equilibrium dissociation constants. How it is done: (§1) Fluorescence intensity of cell surface labeling was measured by flow cytometry.
as §1
This mutant was tested using one of the binding assays described herein in which binding to EGFR expressed on cells is measured. […] Fluorescence intensity of cell surface labeling was measured by flow cytometry.

On to “G12Q: previously described EGF containing a G12Q mutation (Mullenbach et al.) (NSDSECPLSHDQYCLHDGVCMYIEALDKYACNCVVGYIGERCQYRDLKWWELR)”, for which the “increase in affinity for EGFR over wt EGF (previous data)” value in the experiment with EGFR is on record as 5 fold.

On to “NSYSECPLSYDGYCLNDGVCRYIEALDRYACNCVVGYIGERCQYRDLKWWWLR (Mutant of human epidermal growth factor) [clone 107, second generation EGF mutant from the SOSM library]”, for which the Kd in experiment [1] was 0.13 ± 0.01 nM.

The values are drawn from patent US8247531B2, “Mutant epidermal growth factor polypeptides, nucleic acids, and uses therefor” (priority 2006, dated 2012).
